# Patent publication US20190375815A1 (Novartis, published 2019)
# B1: CD19scFv-G4S-CD3gECDTM-41BB (other)
# chain: EIVMTQSPATLSLSPGERATLSCRASQDISKYLNWYQQKPGQAPRLLIYHTSRLHSGIPARFSGSGSGTDYTLTISSLQPEDFAVYFCQQGNTLPYTFGQGTKLEIKGGGGSGGGGSGGGGSQVQLQESGPGLVKPSETLSLTCTVSGVSLPDYGVSWIRQPPGKGLEWIGVIWGSETTYYSSSLKSRVTISKDNSKNQVSLKLSSVTAADTAVYYCAKHYYYGGSYAMDYWGQGTLVTVSSGGGGSQSIKGNHLVKVYDYQEDGSVLLTCDAEAKNITWFKDGKMIGFLTEDKKKWNLGSNAKDPRGMYQCKGSQNKSKPLQVYYRMCQNCIELNAATISGFLFAEIVSIFVLAVGVYFIAKRGRKKLLYIFKQPFMRPVQTTQEEDGCSCRFPEEEEGGCEL
# notes: Chimeric membrane protein: CD19 scFv, G4S linker, CD3 gamma extracellular and transmembrane domains, 4-1BB; Expressed on JNL (Jurkat NFAT luciferase) cells by lentiviral transduction, alone or together with the CD22 TCAR (CD19/22 dual TCAR cells); also called CD19-TCAR; CD19 TCAR
# Target: T1, CD22-Fc (UniProt P20273 20-687, limits assumed)
# T1 construct: Soluble staining reagent, detected with an anti-Fc secondary antibody; not shown: Fc part
# T1 sequence (looked up): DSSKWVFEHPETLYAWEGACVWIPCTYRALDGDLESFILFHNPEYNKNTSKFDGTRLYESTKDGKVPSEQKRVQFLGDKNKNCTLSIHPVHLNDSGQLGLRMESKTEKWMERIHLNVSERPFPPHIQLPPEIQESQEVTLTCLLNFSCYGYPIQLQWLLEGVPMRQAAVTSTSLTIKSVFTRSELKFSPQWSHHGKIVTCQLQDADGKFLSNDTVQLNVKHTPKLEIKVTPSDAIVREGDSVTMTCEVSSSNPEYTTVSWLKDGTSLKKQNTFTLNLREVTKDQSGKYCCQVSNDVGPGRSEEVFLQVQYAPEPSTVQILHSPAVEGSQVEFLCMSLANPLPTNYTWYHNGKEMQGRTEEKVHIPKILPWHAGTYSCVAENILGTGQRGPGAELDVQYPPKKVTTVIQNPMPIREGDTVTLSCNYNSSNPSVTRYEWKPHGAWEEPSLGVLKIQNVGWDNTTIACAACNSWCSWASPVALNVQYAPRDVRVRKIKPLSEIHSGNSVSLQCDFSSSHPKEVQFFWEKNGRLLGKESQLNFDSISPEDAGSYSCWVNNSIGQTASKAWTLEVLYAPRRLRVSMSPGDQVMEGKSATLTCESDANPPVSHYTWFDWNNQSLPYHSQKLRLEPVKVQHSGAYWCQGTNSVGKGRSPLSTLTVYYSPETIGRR
# Experiment: flow cytometry of transduced JNL cells stained with CD22-Fc and anti-Fc secondary antibody
# Excerpt: The Jurkat NFAT Luciferase (JNL) reporter cell line is based on the acute T cell leukemia line Jurkat. The line was modified to express luciferase under control of the Nuclear Factor of Activated T cells (NFAT) response element. For the transduction with TCARs, 400,000 JNL cells/well of a 12-well plate were transduced with a multiplicity of infection (MOI) of 1.5. Frozen virus-containing supernatant was thawed at room temperature and added to the respective wells. One well each was transduced with CD19-TCAR, CD22-TCAR, or CD19-TCAR plus CD22-TCAR (“CD19/22 dual TCAR”) at MOI=1.5 each. The plates were cultured for 6 days.
# TCAR-expressing T cells were tested for their target binding capability by flow cytometry. Non-transduced (UTD), CD19-TCAR, CD22-TCAR and CD19/22 dual TCAR expressing JNL cells were tested: cells were stained with CD22-Fc for 30 min at 4° C. After a wash, cells were stained with anti-Fc secondary antibody for 30 min at 4° C. After a second wash, cells were stained with CD19-CAR anti-idiotype antibody (Ab) for 30 min at 4° C. Cells were then analyzed on a FACS LSR Fortessa after a last wash. Data was analyzed using FlowJo software. […] CD22-TCAR expressing cells bound CD22-Fc but were not stained with the CD19-CAR anti-idiotype Ab (FIG. 47C).
binder,measurement,value
B1,binding result,no binding
